Paper PMC5028202 (ACS chemical biology, 2015)

Molecular target: the molecule itself
Experiment: NMR structure

B1: XCL1 CC5 (A36C A49C), disulfide-locked XCL1dim variant (natural protein, UniProt P47992 22-114, looked up)
chain: VGSEVSDKRTCVSLTTQRLPVSRIKTYTITEGSLRCVIFITKRGLKVCCDPQATWVRDVVRSMDRKSNTRNNMIQTKPTGTQQSTNTAVTLTG
B1 was tested, and the “stoichiometry N” value was 2.
